Experimental data from patent publication US20250011380A1 (published 2025).
Values joined by “and” are separate entries in the source; they are usually repeats but may differ in a detail not shown here. Equal entries are not always repeated.

Molecular target: TGF-β1 (UniProt P01137 279-390)
Test: cell-based or functional assay

TGF-β1, sequence (P01137 279-390 limits assumed): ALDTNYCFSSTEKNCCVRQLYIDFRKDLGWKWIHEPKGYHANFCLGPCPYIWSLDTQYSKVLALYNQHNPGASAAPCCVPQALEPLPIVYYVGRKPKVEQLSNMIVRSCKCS

B1: human recombinant TGFβRII/Fc (Fc fusion, UniProt P37173 23-159, looked up, not shown: a dimerising Fc or GST)
chain: TIPPHVQKSVNNDMIVTDNNGAVKFPQLCKFCDVRFSTCDNQKSCMSNCSITSICEKPQEVCVAVWRKNDENITLETVCHDPKLPYHDFILEDAASPKCIMKEKKKPGETFFMCSCSSDECNDNIIFSEEYNTSNPD
**Q.** Which “IC50, HEK-Blue TGF-β cells, 0.1 nM TGF-β1” value does the source give for B1 here?
**A.** 0.47 nM

**Q.** And the “IC50, HEK-Blue TGFβ reporter cells, 0.1 nM TGFβ1” value?
**A.** 0.461 nM and 0.559 nM

**Q.** What about the “fold lower TGF-β1 blocking activity than TGFRt15-TGFRs or TGFRt15*-TGFRs” value of the same binder?
**A.** ~10 fold
